According to patent publication US20210130437A1:

Target: human PD-1 and human TIGIT co-expressed on Jurkat cells (Jurkat/PD-1/TIGIT cells) (human)
Assay: flow cytometry, Jurkat/PD-1/TIGIT cells

Sequence of human PD-1 and human TIGIT co-expressed on Jurkat cells (Jurkat/PD-1/TIGIT cells) (human) (chain, as listed by the source, chain 1 of 2): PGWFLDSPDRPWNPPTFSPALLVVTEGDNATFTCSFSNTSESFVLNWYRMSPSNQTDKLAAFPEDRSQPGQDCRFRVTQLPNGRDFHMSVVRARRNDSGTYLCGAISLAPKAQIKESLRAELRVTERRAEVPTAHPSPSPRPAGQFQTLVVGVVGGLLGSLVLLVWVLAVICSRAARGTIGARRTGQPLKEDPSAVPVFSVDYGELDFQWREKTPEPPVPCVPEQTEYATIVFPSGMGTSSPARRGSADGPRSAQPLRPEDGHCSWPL
Sequence of human PD-1 and human TIGIT co-expressed on Jurkat cells (Jurkat/PD-1/TIGIT cells) (human) (chain, as listed by the source, chain 2 of 2): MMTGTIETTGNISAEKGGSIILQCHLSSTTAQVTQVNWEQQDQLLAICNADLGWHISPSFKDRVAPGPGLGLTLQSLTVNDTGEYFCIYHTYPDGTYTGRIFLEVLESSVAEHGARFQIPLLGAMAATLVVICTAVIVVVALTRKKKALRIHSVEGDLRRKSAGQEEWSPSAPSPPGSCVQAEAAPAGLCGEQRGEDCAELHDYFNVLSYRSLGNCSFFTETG

MFI at 6.25 nM: 4890 MFI
B1: variant CD155 IgV-Fc P18S/S65W/S67A/L104Q/G111R (Fc fusion)
chain: WPPPGTGDVVVQAPTQVSGFLGDSVTLPCYLQVPNMEVTHVSQLTWARHGESGSMAVFHQTQGPWYAESKRLEFVAARLGAELRNASLRMFGLRVEDEGNYTCQFVTFPQRSRSVDIWLRVLAAAEPKSSDKTHTCPPCPAPELLGGPSVFLFPPKPKDTLMISRTPEVTCVVVDVSHEDPEVKFNWYVDGVEVHNAKTKPCEEQYGSTYRCVSVLTVLHQDWLNGKEYKCKVSNKALPAPIEKTISKAKGQPREPQVYTLPPSREEMTKNQVSLTCLVKGFYPSDIAVEWESNGQPENNYKTTPPVLDSDGSFFLYSKLTVDKSRWQQGNVFSCSVMHEALHNHYTQKSLSLSPGK
